Measured values: paper PMC6044645

Biological target: Class I polyhydroxyalkanoate synthase (PhaC) from Rhodovulum sulfidophilum (Rhodovulum sulfidophilum)
Assay: SEC

Class I polyhydroxyalkanoate synthase (PhaC) from Rhodovulum sulfidophilum (from UniProt A0ABS1RUN8 1-567) (enzyme)
stoichiometry N: 2
